Measured values published in the supplement of paper PMC6379048.

Key:
Assay in all cases: EC50 of free RNA motif oligo competing protein binding to immobilised probe
LSM8 = molecular target: T1, LSM8 (UniProt O95777)
T1 sequence: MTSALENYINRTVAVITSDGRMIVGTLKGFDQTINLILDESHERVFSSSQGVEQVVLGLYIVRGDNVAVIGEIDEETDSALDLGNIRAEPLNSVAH
In short: (§1)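 Over three biological replicates and two independent experiments, proteins captured on NHS-Sepharose beads carrying 5′-amino-C6 RNA oligos were quantified by label-free LC-MS/MS and normalised to the control. Capture lasted 30 min at 4°C and followed a 1 h pre-incubation at 4°C of HEK293-FT lysate (2.5 mg protein/well) with the same oligos in free form (0 nM to 30 μM). EC50 was taken from a four-parameter log-logistic fit, and Kd was EC50 corrected by a protein-dependent depletion factor.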

MRPS23 = MRPS23 (UniProt Q9Y3D9)
In short: as §1

C1QBP = molecular target: T2, C1QBP (UniProt Q07021)
T2 sequence: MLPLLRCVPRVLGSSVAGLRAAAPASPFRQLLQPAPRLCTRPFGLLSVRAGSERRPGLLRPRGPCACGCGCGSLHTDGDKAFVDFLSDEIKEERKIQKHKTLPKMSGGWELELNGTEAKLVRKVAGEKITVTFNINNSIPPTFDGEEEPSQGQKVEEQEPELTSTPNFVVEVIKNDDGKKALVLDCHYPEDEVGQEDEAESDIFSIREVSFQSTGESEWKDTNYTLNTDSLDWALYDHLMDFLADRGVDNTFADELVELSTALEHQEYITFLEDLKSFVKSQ
In short: as §1

TIA1 = molecular target: T3, TIA1 (UniProt P31483)
T3 sequence: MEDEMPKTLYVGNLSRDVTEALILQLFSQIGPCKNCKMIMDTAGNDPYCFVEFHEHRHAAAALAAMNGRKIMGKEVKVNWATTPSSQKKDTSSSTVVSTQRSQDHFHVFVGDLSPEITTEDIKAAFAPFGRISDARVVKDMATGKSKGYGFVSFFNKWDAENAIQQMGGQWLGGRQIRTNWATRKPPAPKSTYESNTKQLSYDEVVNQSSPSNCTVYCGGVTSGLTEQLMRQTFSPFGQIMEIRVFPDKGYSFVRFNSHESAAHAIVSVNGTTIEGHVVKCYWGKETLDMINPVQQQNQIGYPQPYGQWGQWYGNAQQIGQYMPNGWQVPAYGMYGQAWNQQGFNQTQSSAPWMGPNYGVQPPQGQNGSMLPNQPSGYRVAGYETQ
In short: as §1

MRPL48 = MRPL48 (UniProt Q96GC5)
In short: as §1

MRPL53 = MRPL53 (UniProt Q96EL3)
In short: as §1

PCBP1 = PCBP1 (UniProt Q15365)
In short: as §1

RPS3A = RPS3A (UniProt P61247)
In short: as §1

SRSF7 = molecular target: T4, SRSF7 (UniProt Q16629)
T4 sequence: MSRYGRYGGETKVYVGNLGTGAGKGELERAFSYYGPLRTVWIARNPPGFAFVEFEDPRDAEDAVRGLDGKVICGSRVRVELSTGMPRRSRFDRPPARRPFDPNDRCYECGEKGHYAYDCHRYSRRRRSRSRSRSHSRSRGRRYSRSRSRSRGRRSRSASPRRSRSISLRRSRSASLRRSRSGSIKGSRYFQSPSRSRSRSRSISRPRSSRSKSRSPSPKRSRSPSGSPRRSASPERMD
In short: as §1

PCBP1, sequence (Q15365 whole entry): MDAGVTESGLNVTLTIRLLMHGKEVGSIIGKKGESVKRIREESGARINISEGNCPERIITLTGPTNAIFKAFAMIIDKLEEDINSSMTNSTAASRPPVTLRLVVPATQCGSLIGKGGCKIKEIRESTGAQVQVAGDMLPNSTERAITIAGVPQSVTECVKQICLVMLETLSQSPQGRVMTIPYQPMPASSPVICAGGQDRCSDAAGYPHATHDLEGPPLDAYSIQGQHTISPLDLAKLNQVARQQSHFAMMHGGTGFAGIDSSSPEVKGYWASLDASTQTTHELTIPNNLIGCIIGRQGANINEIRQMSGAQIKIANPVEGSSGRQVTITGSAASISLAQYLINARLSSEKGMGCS

UAUUUAU gave an EC50 (LSM8) of 9580 nM and an EC50 (MRPS23) of 40 nM.

Work on AAUAAA yielded an EC50 (C1QBP) of 1470 nM and an EC50 (TIA1) of 2110 nM.

CUGUCCU was tested, and the EC50 (MRPL48) was 177 nM, the EC50 (MRPL53) was 103 nM and the EC50 (PCBP1) was 3360 nM. It also gave an EC50 (RPS3A) of 106 nM and an EC50 (SRSF7) of 3020 nM.
